The DeepSol protein solubility set

test: soluble on expression in E. coli; label from the status in PepcDB or PDB records

Q: With “MSLSKSRKIDVHAHVLPKNIPDFQEKFGYPGFVRLDHKEDGTTHMVKDGKLFRVVEPNCFDTETRIADMNRANVNVQCLSTVPVMFSYWAKPADTEIVARFVNDDLLAECQKFPDRLVPLGTLPMNDVQRAVEEVKRCVSMGIKGFEVGSHVAEKSLDHRDFWPLYKICEELSVVLFVHPWDMHMWDGRLDKYWMPWLVGMPSETAQAICSVLMGNILVLFPKLKLCFAHGGGAYPQIRGRVSHGWNVRPDLCAGKCKVAPNKLDGLLWTDSLVHDPKALELLINTVGKEHIVLGTDYPFPLGELEVGRVVEEYKPFSAKDREDLLWKNAVKMLDIDENLLFNKDFEGHHHHHH” as the sequence, how does the “soluble on expression in E. coli” value read?
A: not soluble

Q: With “MSLSLLLQQHLSQPWRFLDHTSFGPTFQALQSFAYDDTLCTSIGKSQSPPTLRAWVHHNTVVLGIQDSRLPQIKAGIEALKGFQHDVIVRNSGGLAVVLDSGILNLSLVLKEEKGFSIDDGYELMYELICSMFQDHREQIEAREIVGSYCPGSYDLSIDGKKFAGISQRRIRGGVAVQIYLCVSGSGAERAKMIRTFYDKAVAGQPTKFVYPRIKPETMASLSELLGQPHNVSDVLLKALMTLQQHGASLLTESLSADEWLLYEQHFARISERNEKLLAEEGHHHHHH” as the sequence, how does the “soluble on expression in E. coli” value read?
A: soluble

Q: For “MSLSLLSKFSRGVPSPALAHIAKRTFSSVNFSQILRRPQNSSLRLRLVRNISNSNPLPKMTEAGKNIVLKRHDLIVKGAQDAREYRGLELTNGIRVLLVSDPTTDKSAAALDVKVGHLMDPWELPGLAHFCEHMLFLGTAKYPSENEYSKFLAAHAGSSNAYTSSDHTNYHFDVKPDQLPGALDRFVQFFLSPQFTESATEREVCAVDSEHSNNLNNDLWRFLQVDRSRSKPGHDYGKFGTGNKQTLLEDARKKGIEPRDALLQFHKKWYSSDIMTCCIVGKEPLNVLESYLGTLEFDAIENKKVERKVWEEFPYGPDQLAKRIDVVPIKDTRLVSISFPFPDLNGEFLSQPGHYISHLIGHEGPGSLLSELKRLGWVSSLQSDSHTQAAGFGVYNVTMDLSTEGLEHVDEIIQLMFNYIGMLQSAGPKQWVHDELAELSAVKFRFKDKEQPMTMAINVAASLQYIPFEHILSSRYLLTKYEPERIKELLSMLSPANMQVRVVSQKFKGQEGNTNEPVYGTEMKVTDISPETMKKYENALKTSHHALHLPEKNEYIATNFDQKPRESVKNEHPRLISDDGWSRVWFKQDDEYNMPKQETKLALTTPMVAQNPRMSLLSSLWLWCLSDTLAEETYNADLAGLKCQLESSPFGVQMRVSNRREAERHASLTLHVYGYDEKQALFAKHLANRMTNFKIDKTRFDVLFESLKRALTNHAFSQPYLLTQHYNQLLIVDKVWSKEQLLAVCDSVTLEDVQGFAKEMLQAFHMELFVHGNSTEKEAIQLSKELMDVLKSAAPNSRPLYRNEHNPRRELQLNNGDEYVYRHLQKTHDVGCVEVTYQIGVQNTYDNAVVGLIDQLIREPAFNTLRTNEALGYIVWTGSRLNCGTVALNVIVQGPKSVDHVLERIEVFLESVRKEIAEMPQEEFDNQVSGMIARLEEKPKTLSSRFRRFWNEIECRQYNFARREEEVALLKTIKKDDVLELFDKKIRKDAAERRKLAVFVHGKNEDQEAVNTIIKKNAESGKKEKEVLYSDQLRQFLPLYGRPIAAIDLKPIGVDPLEHQETTKSKY”, which “soluble on expression in E. coli” value is on record?
A: not soluble

Q: Which “soluble on expression in E. coli” value does the source give for “MSLSLYQSVRAVANARGGETEWIDWRATAEAAKQARDQGALTLDDAERRAYATDVRDARSRLRTVGGLEFDIPQTIEVQNRHHWIDANIKTFERMLDPIDIATLIDDTNALNGPSGYATRMVNTGSMAAALAFLSGNVLGQYDPQLLSQTTDTIETNENNHELYFVHPNIVDVAAELDVEYPRFRRWIAFHEVAHAAEFGAAPWLRTHIEDRIESGLEALTGGRLDRSAFSDVDIVMTAVEGYAELLMDRAFDKEYADLRAKLDARRGGGGPVAQLFRRLLGLGVKERQYERGAQFFETIADQRGVKAAATVWEDPRYLPDESELDNPQYWIDRVNEGHHHHHH” here?
A: not soluble

Q: Which “soluble on expression in E. coli” value does the source give for “MSLSNISLTTLGGVRENGKNMYIAEIGESIFVLNVGLKYPENEQLGVDVVIPNMDYLFENSDRIAGVFLTHGHADAIGALPYLLAEAKVPVFGSELTIELAKLFVKGNDAVKKFNDFHVIDENTEIDFGGTVVSFFPTTYSVPESLGIVLKTSEGSIVYTGDFKFDQTASESYATDFARLAEIGRDGVLALLSDSANADSNIQVASESEVRDEITQTIADWEGRIIVAAVSSNLSRIQQIFDAADKTGRRIVLTGFDIENIVRTAIRLKKLSLANEILLIKPKDMSRFEDHELIILETGRMGEPINGLRKMSIGRHRYVEIKDGDLVYIATAPSIAKEAFVARVENMIYQAGGVVKLITQSLHVSGHGNVRDLQLMINLLQPKYLFPVQGEYRELDAHAKAAMAVGMLPERIFIPKKGTTMAYENGDFVPAGSVSAGDILIDGNAIGDVGNVVLRDRKVLSEDGIFIVAITVNRREKKIVARARVHTRGFVYLKKSRDILRESSELINQTVEEYLQGDDFDWADLKGKVRDNLTKYLFDQTKRRPAILPVVMEAEGHHHHHH” here?
A: not soluble

Q: Which “soluble on expression in E. coli” value does the source give for “MSLSNYISIKGAKVNNLKNIDVNIPRNKLVVITGLSGSGKSSLAFDTLYAEGQRRYVESLSSYARQFLGRMSKPECDFIKGIPPAIAIEQKVNSRNPRSTVGTSTEIYEYLRLLYARVGKTYSPISGQLVKKHSIEDIVNCMLSFPKGTKYTVLTPMMPREGRTLLQQLEMDLKQGFTRIEVNREIVRIEDFLQQTAAEDKKQNIYLLVDRMTADDSKDSISRLTDSAETAMYEGDGNCLLRFYSADGSTQLFSFSTKFETDGIKFEEPNDQMFSFNSPLGACPECEGFGKVIGIDEHLVIPNRALSVYDGAVLCWRGEKMGEWLQEFIHEAPAHDFPIFAPYYELTQEQKDYLWHGPRNKACIDSFFKMLEENQYKIQYRVMLARYRGKTICPVCHGTRLKKEAGYVKVGGKSISQLVDLPIHDLKEFFRTLELDAHDTAIAKRILTEITNRINFLMDVGLGYLTLNRLSNSLSGGESQRINLATSLGSSLVGSLYILDEPSIGLHSRDTDRLIKVLRQLQELGNTVVVVEHDEEIIRAADYIIDIGPQAGRLGGQIVYQGNMNDLQRNSNSYTVRYLLGEEGHHHHHH” here?
A: not soluble

Q: With “MSLSPEGVNGNRCSESFPLLEKYRIGKVIGDGNFAVVKECVDRYTGKEFALKIIDKAKCCGKEHLIENEVSILRRVKHPNIIMLVEEMETATDLFLVMELVKGGDLFDAITSSTKYTERDGSAMVYNLANALRYLHSLSIVHRDIKPENLLVCEYPDGTKSLKLGDFGLATVVEGPLYTVCGTPTYVAPEIIAETGYGLKVDVWAAGVITYILLCGFPPFRSENNLQEDLFDQILAGKLEFPAPYWDNITDSAKELISQMLQVNVEARCTAGEILSHPWVSDDASQENNMQAEVTGKLKQHFNNALPKQNSTTTGVSVIMNTALDKEGQIFCSKLCQDSSRPSREGHHHHHH” as the sequence, how does the “soluble on expression in E. coli” value read?
A: not soluble

Q: With “MSLSPFEHPFLSGLFGDSEIIELFSAKADIDAMIRFETALAQAEAEASIFADDEAEAIVSGLSEFAADMSALRHGVAKDGVVVPELIRQMRAAVAGQAADKVHFGATSQDVIDTSLMLRLKMAAEIIATRLGHLIDTLGDLASRDGHKPLTGYTRMQAAIGITVADRAAGWIAPLERHLLRLETFAQNGFALQFGGAAGTLEKLGDNAGAVRADLAKRLGLADRPQWHNQRDGIAEFANLLSLVTGTLGKFGQDIALMAEIGSEIRLSGGGGSSAMPHKQNPVNAETLVTLARFNAVQISALHQSLVQEQERSGAGWMLEWLTLPQMVTATGTSLLVAERLAAQIDRLGADESHHHHHH” as the sequence, how does the “soluble on expression in E. coli” value read?
A: soluble

Q: With “MSLSPIAPYEIGYVHIDSCELCHADGKLVMFLAIDRVSKFTYVDFHDCAGKMEGAAFLRNVVEAFPYQIHIVLTDNGMAFADLPKNRNGPSRRFFGPHIFDRVCIEHGIEHRLTKPYHPWTNGQAERMNRTIKDATIKAYHYDDLESLKAHVLAFVTAYNFAKHLKALRWRTPYQAICDARTKDPSIFKIDPHHLTQGPHTLSEGHHHHHH” as the sequence, how does the “soluble on expression in E. coli” value read?
A: not soluble
